# US20240301076A1 (CEPHALON, published 2024)
# Where a chain is given by its changes, count along the chain named. In names and notes the source's numbering stands. Several values for one entry are separate records, joined by “and”; a condition that tells them apart may be missing. Equal values may be shown once. Read-outs that look alike come from different tables or passages of the source.
# T1: human CXCR2 (human, UniProt P25025 1-360)
# T1 sequence: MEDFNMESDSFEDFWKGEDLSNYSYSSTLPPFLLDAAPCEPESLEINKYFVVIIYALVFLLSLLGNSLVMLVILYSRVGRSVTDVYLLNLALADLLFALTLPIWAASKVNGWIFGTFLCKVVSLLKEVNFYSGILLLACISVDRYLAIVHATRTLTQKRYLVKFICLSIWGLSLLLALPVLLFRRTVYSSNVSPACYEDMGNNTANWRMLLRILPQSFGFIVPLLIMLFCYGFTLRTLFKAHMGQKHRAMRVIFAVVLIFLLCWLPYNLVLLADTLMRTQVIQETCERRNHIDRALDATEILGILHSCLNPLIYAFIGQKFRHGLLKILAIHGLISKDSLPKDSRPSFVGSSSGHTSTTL
# T2: human CXCR1 (human, UniProt P25024 1-350)
# T2 sequence: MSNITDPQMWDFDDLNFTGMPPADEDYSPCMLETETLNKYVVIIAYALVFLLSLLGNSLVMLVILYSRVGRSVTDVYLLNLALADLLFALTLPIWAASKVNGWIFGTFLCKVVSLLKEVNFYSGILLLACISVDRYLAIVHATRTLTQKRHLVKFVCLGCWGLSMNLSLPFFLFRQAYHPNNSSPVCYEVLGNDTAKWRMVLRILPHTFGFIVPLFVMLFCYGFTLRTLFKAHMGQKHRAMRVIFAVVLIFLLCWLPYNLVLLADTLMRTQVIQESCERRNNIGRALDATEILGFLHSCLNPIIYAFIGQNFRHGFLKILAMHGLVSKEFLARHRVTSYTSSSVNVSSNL
# T3: cynomolgus monkey CXCR2 (cynomolgus monkey, UniProt Q28519 3-353 (rhesus entry))
# T3 construct: native on cynomolgus blood cells in the entries below; also called cynomolgus CXCR2
# T3 chain: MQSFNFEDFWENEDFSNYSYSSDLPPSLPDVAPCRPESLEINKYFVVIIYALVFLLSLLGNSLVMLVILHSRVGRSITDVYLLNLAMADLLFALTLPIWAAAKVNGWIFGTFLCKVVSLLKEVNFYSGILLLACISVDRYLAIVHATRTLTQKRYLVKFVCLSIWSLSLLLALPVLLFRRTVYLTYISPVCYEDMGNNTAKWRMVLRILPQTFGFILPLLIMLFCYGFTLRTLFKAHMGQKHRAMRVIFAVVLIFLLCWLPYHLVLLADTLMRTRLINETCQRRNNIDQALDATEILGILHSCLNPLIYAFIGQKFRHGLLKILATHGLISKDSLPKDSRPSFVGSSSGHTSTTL
# B1: BKO-4A8 (antibody, human IgG4 S228P, lambda)
# heavy: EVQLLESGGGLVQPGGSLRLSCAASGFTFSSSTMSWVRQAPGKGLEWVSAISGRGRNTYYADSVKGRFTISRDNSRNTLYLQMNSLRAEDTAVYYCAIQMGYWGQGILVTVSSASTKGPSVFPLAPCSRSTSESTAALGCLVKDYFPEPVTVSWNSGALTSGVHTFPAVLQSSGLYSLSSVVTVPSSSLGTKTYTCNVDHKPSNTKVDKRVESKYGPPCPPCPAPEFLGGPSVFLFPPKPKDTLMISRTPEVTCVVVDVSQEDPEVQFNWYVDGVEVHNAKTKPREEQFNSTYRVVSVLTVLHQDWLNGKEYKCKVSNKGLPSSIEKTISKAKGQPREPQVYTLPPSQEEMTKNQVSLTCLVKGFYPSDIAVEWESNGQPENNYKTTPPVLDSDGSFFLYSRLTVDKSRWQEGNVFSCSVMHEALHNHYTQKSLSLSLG
# light: QSALTQPPSASGSPGQSVTISCIGTSSDVGGYNYVSWYQQHPDKAPKLMIYEVNKRPSGVPDRFSGSKSGNTASLTVSGLQAEDEADYYCSSYAGNNNFGVFGGGTKLTVLGQPKAAPSVTLFPPSSEELQANKATLVCLISDFYPGAVTVAWKADSSPVKAGVETTTPSKQSNNKYAASSYLSLTPEQWKSHRSYSCQVTHEGSTVEKTVAPTECS
# notes: recombinant human IgG4 S228P, lambda; also called BKO-4A8 IgG4; parental BKO-4A8
# B2: BKO-4A8-101c (antibody, human IgG4 S228P, lambda, V domains shown)
# VH: EVQLLESGGGLVQPGGSLRLSCAASGFTFSSSTQSWVRQPPGKGLEWVSAISGRGRSTYYADSVKGRFTISRDNSKNTLYLQMNSLRAEDTAVYYCAIQAGYWGQGILVTVSS
# VL: QSALTQPPSASGSPGQSVTISCIGTSSDVGGYNYVSWYQQHPGKAPKLMIYEVSKRPSGVPDRFSGSKSGNTASLTVSGLQAEDEADYYCSSYAGSNNFGVFGGGTKLTVLG
# B3: BKO-8G3_b (antibody, human IgG4 S228P, lambda, V domains shown)
# VH: EVQLLESGGGLVQPGGSLRLSCAASGFTFSSYAMSWVRQAPGKGLEWVSAITGSGGSTYYADSVKGRFTISRDKSKNTLYLQMNSLRAEDTAVYYCAIRLGYWGQGSLVTVSS
# VL: B2 VL with I23T, A45V, M49V
# notes: recombinant human IgG4 S228P, lambda
# B4: BKO-9C3_a (antibody, human IgG4 S228P, lambda, V domains shown)
# VH: B3 VH with L4V, S30R, T52S, R99Q, S107T
# VL: B2 VL with T19I, I23T, A45V, S91T
# notes: as for B3
# How the values were obtained:
# [1] = biological target: T1, human CXCR2; assay: cell-based or functional assay
# [2] = biological target: T1, human CXCR2; assay: cell-based or functional assay; remark: listed apart in the source
# [3] = biological target: T2, human CXCR1; assay: flow cytometry, transfected Expi293F cells
# Experimental: (§1) Harvested cells were resuspended in FACS buffer (1×PBS+0.5% (w/v) bovine serum albumin (BSA)+2 mM EDTA pH 7.2). Approximately 2×10⁵ cells were added per well in a 96-well round-bottomed plate. Cells were pelleted by centrifugation at 400 g for 5 mins at 4° C. and supernatants discarded. 25 μL of each test antibody or control antibody was added to the cells and incubated for 30 minutes at 4° C. Cells were washed twice in 100 μL FACS buffer followed by centrifugation at 400 g for 5 mins at 4° C.
# (§2) For detection, 50 μL of secondary antibody (Table 2) was added to relevant samples. Commercially available antibodies that bound to transfected CXCR family members were used as positive controls to ensure that the cells were expressing the receptors. Cells were washed twice in 200 μL of FACS buffer followed by centrifugation at 400 g for 5 mins at 4° C. Before sample acquisition, cells were resuspended in 100 μL of FACS buffer. Samples were acquired using the high throughput sampler on a FACSCanto™ II cytometer (Beckton-Dickinson).
# (§3) These antibody variable regions were then generated by gene synthesis and subcloned into mammalian expression vectors as described in General Methods. Antibodies were produced by co-expression of heavy and light chain plasmids in Expi293F™ cells and purified by protein A column chromatography as described in General Methods. Where several heavy and/or light chains were identified from the same hybridoma cells, each heavy chain was paired with each light chain and the resulting antibodies given suffix a, b, c, etc. Purified antibodies were desalted into Sorensen's PBS pH 5.8 and tested by flow cytometry for binding to Expi293F™ cells transfected with human CXCR2 or human CXCR1 and mock transfected Expi293F™ cells.
# [4] = biological target: T1, human CXCR2; assay: flow cytometry, CXCR2-transfected Expi293F cells
# Experimental: as §1, §2
# Each heavy chain was co-expressed with each light chain to produce a sequence optimized antibody variant. Antibodies were purified and tested for CXCR2 binding activity as described in General Methods.
# [5] = biological target: T1, human CXCR2; assay: flow cytometry, CXCR2-transfected Expi293F cells; remark: listed apart in the source
# Experimental: as §1, §2
# A further six heavy chain combinational variants comprising four or more amino acid substitutions were produced as provided in Table 12. […] Each heavy chain was co-expressed with light chain c (SEQ ID NO:110) to produce an antibody variant. Antibodies were purified and tested for CXCR2 binding activity as described in General Methods.
# [6] = biological target: T3, cynomolgus monkey CXCR2; assay: flow cytometry, native CXCR2 on cynomolgus PBMC preparations
# Experimental: Whole human buffy coat, PBMC enriched fractions prepared from human peripheral blood buffy coat or cynomolgus monkey whole blood was used for analysis of antibody binding activity by flow cytometry. Briefly, blood was untreated or diluted 1:1 in sterile filtered room temperature phosphate-buffered saline (PBS). 30 mL samples were layered over 15 mL Lymphoprep™ (Stem Cell Technologies, cat #07851). Peripheral blood mononuclear cells (PBMC) were enriched by room temperature centrifugation at 700 g for 30 minutes with no braking. The PBMC layer was isolated and cells washed in PBS containing 2 mM EDTA with low speed centrifugation at 200 g, to remove platelet contamination. Whole blood or PBMC enriched cell fractions were resuspended in red blood cell lysing solution (BioLegend, 420301). Viable cell counts were determined and cells resuspended at 1×10⁷ cells per mL in FACS buffer (1×PBS+0.5% (w/v) BSA+2 mM EDTA pH 7.2).
# Flow cytometry binding assays using whole blood or PBMC enriched preparations: Binding assays to detect CXCR2 on blood neutrophil populations using test antibodies were performed essentially as described for assays using transiently transfected Expi293F™ cells. […] Matched isotype control antibodies were included for comparison. […] Neutrophil populations were identified by characteristic granularity and size, and positive binding of commercially available antibodies against CD10 (Biolegend, clone Hl10a, catalogue number 312204). Cells were washed and fixed (BioLegend Fixation buffer, 420801) prior to analysis. The level of fluorescence on the cell surface was measured by flow cytometry.
# [7] = biological target: T1, human CXCR2; assay: cell-based or functional assay; remark: listed apart in the source
# [8] = biological target: T1, human CXCR2; assay: cell-based or functional assay; remark: listed apart in the source
# [9] = biological target: T1, human CXCR2; assay: cell-based or functional assay; remark: listed apart in the source
# [10] = biological target: T1, human CXCR2; assay: cell-based or functional assay; remark: listed apart in the source
# [11] = biological target: T1, human CXCR2; assay: flow cytometry, transfected Expi293F cells
# Experimental: as §1, §2, §3
binder,measurement,setting,value
B1,"IC50, CXCL1, Tango assay",[1],177 pM
same,"IC50, CXCL8, Tango assay",[1],112 pM
same,"CXCL1 IC50, Tango assay",[2],94000 pM
same,"CXCL8 IC50, Tango assay",[2],660 pM
same,binding result,[3],no binding
same,EC50,[4],400 pM and 500 pM and 600 pM and 900 pM
same,EC50,[5],1580 pM and 3820 pM
same,binding result,[6],binds
B2,CXCL1 Fold Improvement over 4A8 WT,[2],1.49 fold
same,"CXCL1 IC50, Tango assay",[2],630 pM
same,CXCL8 Fold Improvement over 4A8 WT,[2],2.39 fold
same,"CXCL8 IC50, Tango assay",[2],280 pM
same,"IC50 mean, Hu CXCL1, Tango β-arrestin",[7],270 pM
same,"IC50 mean, Hu CXCL2, Tango β-arrestin",[7],360 pM
same,"IC50 mean, Hu CXCL3, Tango β-arrestin",[7],390 pM
same,"IC50 mean, Hu CXCL5, Tango β-arrestin",[7],300 pM
same,"IC50 mean, Hu CXCL6, Tango β-arrestin",[7],280 pM
same,"IC50 mean, Hu CXCL7, Tango β-arrestin",[7],440 pM
same,"IC50 mean, Hu CXCL8, Tango β-arrestin",[7],340 pM
same,"IC50 mean, Hu CXCL1, calcium flux",[8],1550 pM
same,"IC50 mean, Hu CXCL2, calcium flux",[8],1620 pM
same,"IC50 mean, Hu CXCL3, calcium flux",[8],630 pM
same,"IC50 mean, Hu CXCL5, calcium flux",[8],1030 pM
same,"IC50 mean, Hu CXCL6, calcium flux",[8],1710 pM
same,"IC50 mean, Hu CXCL7, calcium flux",[8],2140 pM
same,"CXCL1 IC50, β-arrestin recruitment",[9],380 pM
same,"CXCL5 IC50, β-arrestin recruitment",[9],340 pM
same,"CXCL8 IC50, β-arrestin recruitment",[9],340 pM
same,"CXCL1 IC50, calcium flux",[10],1470 pM
same,EC50,[5],3050 pM
same,Max binding (MFI Percent of 4A8 WT),[5],89%
same,Max binding (MFI),[5],55000 MFI
B3,binding result,[11],binds
same,binding result,[3],no binding
same,binding result,[6],binds
B4,binding result,[11],binds
same,binding result,[3],no binding
same,binding result,[6],binds
